Assay results as given in the supplement of paper PMC10567573.

B1: SPATS1 (parent)
chain: GRKKYDIDPRNGIPKLTPGDNPYM
B2: POMT2 (parent)
chain: VLRSRIRFIHLVTGCVLGSSGKVL
B3: APBB1IP (parent)
chain: ADPVLDLPLPPPPPEPLSQVSMWD

Variants of: B1
Assay: protein stability index of a GFP-peptide fusion (GPS, HEK-293T) (PSI 1-6); higher = more stable
Conditions: c terminus: a fixed tail appended
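Also: lentivirally expressed fusions sorted by FACS into six bins by GFP to DsRed ratio, PSI derived from sequencing read proportions per bin multiplied by bin number.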

Protein stability index, by site and new letter:
P9: I 3.69, M 3.28, A 3.44, L 3.24, R 3.74, D 3.99, V 3.36, T 3.62, S 3.85, N 3.49, Q 3.67, G 3.52, K 3.27, H 3.79, C 3.72, Y 2.99, F 2.8, W 2.52, E 4.19
L16: E 4.32, M 3.67, D 4.11, F 3.11, K 3.53, H 3.75, C 3.44, A 4.09, N 4.24, G 4, I 3.47
N11: T 3.46, M 3.17, K 3.59, Q 3.41, L 3.06, S 3.6, I 3.22, D 3.87, A 3.05, Y 4.13, V 3.28, P 3.8, G 3.53, E 3.82, R 3.28, H 3.54, W 2.48, F 3.34, C 2.77
P14: M 3.05, L 2.94, A 3.52, Y 3.03, I 2.96, N 3.55, T 3.27, Q 3.42, G 3.38, S 3.3, H 3.51, R 2.99, W 2.9, D 3.66, K 3.44, C 2.95, E 4.16, F 2.4, V 3.36
G12: S 3.57, E 3.97, Y 2.8, C 2.48, N 3.21, I 2.77, Q 3.72, M 3.08, F 3.34, P 3.9, T 3.22, W 2.83, D 3.3, V 3.46, R 3.42, A 3.66, H 3.32, K 3.58, L 3.09
R10: F 2.7, C 3.77, A 3.48, I 3.57, P 3.29, T 3.81, K 3.92, H 3.4, S 3.65, M 3.03, W 2.56, Q 4.14, E 4.19, N 3.23, Y 3.1, G 3.68, L 3.53, V 2.8, D 4.41
K15: I 3.69, R 3.63, F 2.97, W 1.98, A 3.64, V 3.29, N 3.49, T 3.78, L 3.29, S 3.69, P 3.62, Q 4.05, Y 2.96, M 3.69, E 4.33, C 3.04, H 3.55, D 3.88, G 2.81
G1: I 2.66, F 2.88, R 3.93, W 2.78, Q 3.52, L 2.96, M 3.12, Y 3.31, A 3.48, K 3.25, S 3.65, E 3.96, N 3.54, T 3.4, P 3.51, V 3.68, H 3.25, C 2.83, D 3.85
I13: T 3.72, R 3.58, K 3.9, Q 3.68, M 3.36, F 3.99, A 4.14, P 3.86, N 4.1, E 4.45, W 3.44, Y 2.81, H 4.04, V 3.82, C 3.82, D 4.92, S 3.88, G 3.78, L 3.64
K4: H 3.2, Q 3.23, E 4.1, C 2.81, M 3.5, V 3.29, P 3.52, A 3.38, G 3.71, L 2.91, I 3.33, T 3.48, Y 3.22, R 3.19, N 3.88, W 3.03, D 3.83, F 2.62, S 3.83
I7: E 4.5, D 4.21, N 3.86, T 3.75, W 2.91, V 3.83, H 3.81, Y 3.45, G 4.08, C 3.93, M 2.98, S 4.25, K 4.19, L 3.39, R 4.22, P 3.71, A 3.53, Q 4.17, F 3.11
K3: R 3.27, C 2.29, E 3.79, G 3.53, L 3.19, Y 2.77, P 3.29, V 3.67, S 3.25, T 3.73, A 3.2, D 4.24, Q 3.8, W 2.91, N 3.32, H 3.67, M 3.2, F 2.83, I 3.39
Y5: H 3.88, M 3.65, A 4.14, C 4.08, I 3.4, L 4.43, K 4.23, N 3.93, T 4.11, D 4.64, P 3.38, F 3.51, Q 4.27, G 4.44, S 4.36, V 4.04, R 4.07, W 2.92, E 4.86
D6: N 3.36, E 3.4, A 3.26, S 3.4, I 2.57, K 3.33, R 3.11, T 3.16, W 2.38, Y 3.12, C 2.89, L 2.84, F 2.51, G 3.51, Q 2.94, P 3.49, V 2.52, H 3.35, M 3.01
R2: K 3.61, T 3.15, N 3.44, Y 3.15, E 4.15, S 3.66, D 4.13, V 3.73, C 3.3, M 3.37, H 3.85, I 3.25, G 3.39, L 3.12, Q 3.59, A 3.51, P 3.73, W 2.73, F 3.4
D8: G 2.93, N 3.12, F 2.84, I 3.08, T 3.56, Q 3.83, R 3.08, A 3.02, H 2.82, E 3.72, Y 2.68, V 3.08, C 3.1, K 3.14, L 3.16, M 3.18, P 3.42, W 2.68, S 3.33

Variants of: B2
Assay: as above
Conditions: c terminus: a fixed tail appended

Protein stability index, by site and new letter:
V23: P 3.61, M 2.32, Y 2.47, F 1.77, E 3.48, K 2.21, R 1.46, C 2.37, G 3.42, Q 3.61, D 3.41
L24: I 4.08, R 2.92, H 3.1, W 4.21, S 2.75, Y 2.18, E 3.25, N 1.89, G 3.89, M 2.42, D 2.33
K22: W 3.35, P 1.99, Y 2.74, S 2.57, L 2.69, V 3.02, F 2.53, H 2.37

Variants of: B3
Assay: as above
Conditions: c terminus: a fixed tail appended

Protein stability index, by site and new letter:
P11: E 4.69, K 4.69, V 4.43
P13: V 3.84, R 4.37, K 4.6, W 3.8, E 4.96
